B1: GLS3000 N28G (Kabat) L chain altered form, one-arm antibody with CE115HA000 (antibody, human IgG1, kappa, L234A L235A, N297A, name in Kabat numbering)
heavy: QVQLVESGGGVVQPGRSLRLSCAASGFTFSNAWMHWVRQAPGKGLEWVAQIKAKSNNYATYYAESVKGRFTISRDDSKNSLYLQMNSLKTEDTAVYYCRYVHYGAYYGVDAWGQGTTVTVSSASTKGPSVFPLAPSSKSTSGGTAALGCLVKDYFPEPVTVSWNSGALTSGVHTFPAVLQSSGLYSLSSVVTVPSSSLGTQTYICNVNHKPSNTKVDKKVEPKSCDKTHTCPPCPAPEAAGGPSVFLFPPKPKDTLMISRTPEVTCVVVDVSHEDPEVKFNWYVDGVEVHNAKTKPREEQYASTYRVVSVLTVLHQDWLNGKEYKCKVSNKALPAPIEKTISKAKGQPREPQVYTLPPSRCELTKNQVSLSCAVKGFYPSDIAVEWESNGQPENNYKTTPPVLDSDGSFFLVSKLTVDKSRWQQGNVFSCSVMHEALHNHYTQKSLSLSPDYKDDDDK
chain: EPKSSDKTHTCPPCPAPELLGGPSVFLFPPKPKDTLMISRTPEVTCVVVDVSHEDPEVKFNWYVDGVEVHNAKTKPREEQYNSTYRVVSVLTVLHQDWLNGKEYKCKVSNKALPAPIEKTISKAKGQPREPQVCTLPPSRDELTKNQVSLWCLVKGFYPSDIAVEWESNGQPENNYKTTPPVLDSDGSFFLYSKLTVDKSRWQQGNVFSCSVMHEALHNRYTQKSLSLSP
light: DIVMTQSPLSLPVTPGEPASISCRSSQSLVHSGRNTYLHWYQQKPGQAPRLLIYKVSNRFSGVPDRFSGSGSGTDFTLKISRVEAEDVGVYYCGQGTQVPYTFGQGTKLEIKRTVAAPSVFIFPPSDEQLKSGTASVVCLLNNFYPREAKVQWKVDNALQSGNSQESVTEQDSKDSTYSLSSTLTLSKADYEKHKVYACEVTHQGLSSPVTKSFNRGEC
notes: one-arm antibody
B2: GLS3000 N28H (Kabat) L chain altered form, one-arm antibody with CE115HA000 (antibody, human IgG1, kappa, L234A L235A, N297A, name in Kabat numbering)
heavy: QVQLVESGGGVVQPGRSLRLSCAASGFTFSNAWMHWVRQAPGKGLEWVAQIKAKSNNYATYYAESVKGRFTISRDDSKNSLYLQMNSLKTEDTAVYYCRYVHYGAYYGVDAWGQGTTVTVSSASTKGPSVFPLAPSSKSTSGGTAALGCLVKDYFPEPVTVSWNSGALTSGVHTFPAVLQSSGLYSLSSVVTVPSSSLGTQTYICNVNHKPSNTKVDKKVEPKSCDKTHTCPPCPAPEAAGGPSVFLFPPKPKDTLMISRTPEVTCVVVDVSHEDPEVKFNWYVDGVEVHNAKTKPREEQYASTYRVVSVLTVLHQDWLNGKEYKCKVSNKALPAPIEKTISKAKGQPREPQVYTLPPSRCELTKNQVSLSCAVKGFYPSDIAVEWESNGQPENNYKTTPPVLDSDGSFFLVSKLTVDKSRWQQGNVFSCSVMHEALHNHYTQKSLSLSPDYKDDDDK
chain: EPKSSDKTHTCPPCPAPELLGGPSVFLFPPKPKDTLMISRTPEVTCVVVDVSHEDPEVKFNWYVDGVEVHNAKTKPREEQYNSTYRVVSVLTVLHQDWLNGKEYKCKVSNKALPAPIEKTISKAKGQPREPQVCTLPPSRDELTKNQVSLWCLVKGFYPSDIAVEWESNGQPENNYKTTPPVLDSDGSFFLYSKLTVDKSRWQQGNVFSCSVMHEALHNRYTQKSLSLSP
light: DIVMTQSPLSLPVTPGEPASISCRSSQSLVHSHRNTYLHWYQQKPGQAPRLLIYKVSNRFSGVPDRFSGSGSGTDFTLKISRVEAEDVGVYYCGQGTQVPYTFGQGTKLEIKRTVAAPSVFIFPPSDEQLKSGTASVVCLLNNFYPREAKVQWKVDNALQSGNSQESVTEQDSKDSTYSLSSTLTLSKADYEKHKVYACEVTHQGLSSPVTKSFNRGEC
notes: one-arm antibody
B3: GLS3000 N28I (Kabat) L chain altered form, one-arm antibody with CE115HA000 (antibody, human IgG1, kappa, L234A L235A, N297A, name in Kabat numbering)
heavy: QVQLVESGGGVVQPGRSLRLSCAASGFTFSNAWMHWVRQAPGKGLEWVAQIKAKSNNYATYYAESVKGRFTISRDDSKNSLYLQMNSLKTEDTAVYYCRYVHYGAYYGVDAWGQGTTVTVSSASTKGPSVFPLAPSSKSTSGGTAALGCLVKDYFPEPVTVSWNSGALTSGVHTFPAVLQSSGLYSLSSVVTVPSSSLGTQTYICNVNHKPSNTKVDKKVEPKSCDKTHTCPPCPAPEAAGGPSVFLFPPKPKDTLMISRTPEVTCVVVDVSHEDPEVKFNWYVDGVEVHNAKTKPREEQYASTYRVVSVLTVLHQDWLNGKEYKCKVSNKALPAPIEKTISKAKGQPREPQVYTLPPSRCELTKNQVSLSCAVKGFYPSDIAVEWESNGQPENNYKTTPPVLDSDGSFFLVSKLTVDKSRWQQGNVFSCSVMHEALHNHYTQKSLSLSPDYKDDDDK
chain: EPKSSDKTHTCPPCPAPELLGGPSVFLFPPKPKDTLMISRTPEVTCVVVDVSHEDPEVKFNWYVDGVEVHNAKTKPREEQYNSTYRVVSVLTVLHQDWLNGKEYKCKVSNKALPAPIEKTISKAKGQPREPQVCTLPPSRDELTKNQVSLWCLVKGFYPSDIAVEWESNGQPENNYKTTPPVLDSDGSFFLYSKLTVDKSRWQQGNVFSCSVMHEALHNRYTQKSLSLSP
light: DIVMTQSPLSLPVTPGEPASISCRSSQSLVHSIRNTYLHWYQQKPGQAPRLLIYKVSNRFSGVPDRFSGSGSGTDFTLKISRVEAEDVGVYYCGQGTQVPYTFGQGTKLEIKRTVAAPSVFIFPPSDEQLKSGTASVVCLLNNFYPREAKVQWKVDNALQSGNSQESVTEQDSKDSTYSLSSTLTLSKADYEKHKVYACEVTHQGLSSPVTKSFNRGEC
notes: one-arm antibody
B4: GLS3000 N28K (Kabat) L chain altered form, one-arm antibody with CE115HA000 (antibody, human IgG1, kappa, L234A L235A, N297A, name in Kabat numbering)
heavy: QVQLVESGGGVVQPGRSLRLSCAASGFTFSNAWMHWVRQAPGKGLEWVAQIKAKSNNYATYYAESVKGRFTISRDDSKNSLYLQMNSLKTEDTAVYYCRYVHYGAYYGVDAWGQGTTVTVSSASTKGPSVFPLAPSSKSTSGGTAALGCLVKDYFPEPVTVSWNSGALTSGVHTFPAVLQSSGLYSLSSVVTVPSSSLGTQTYICNVNHKPSNTKVDKKVEPKSCDKTHTCPPCPAPEAAGGPSVFLFPPKPKDTLMISRTPEVTCVVVDVSHEDPEVKFNWYVDGVEVHNAKTKPREEQYASTYRVVSVLTVLHQDWLNGKEYKCKVSNKALPAPIEKTISKAKGQPREPQVYTLPPSRCELTKNQVSLSCAVKGFYPSDIAVEWESNGQPENNYKTTPPVLDSDGSFFLVSKLTVDKSRWQQGNVFSCSVMHEALHNHYTQKSLSLSPDYKDDDDK
chain: EPKSSDKTHTCPPCPAPELLGGPSVFLFPPKPKDTLMISRTPEVTCVVVDVSHEDPEVKFNWYVDGVEVHNAKTKPREEQYNSTYRVVSVLTVLHQDWLNGKEYKCKVSNKALPAPIEKTISKAKGQPREPQVCTLPPSRDELTKNQVSLWCLVKGFYPSDIAVEWESNGQPENNYKTTPPVLDSDGSFFLYSKLTVDKSRWQQGNVFSCSVMHEALHNRYTQKSLSLSP
light: DIVMTQSPLSLPVTPGEPASISCRSSQSLVHSKRNTYLHWYQQKPGQAPRLLIYKVSNRFSGVPDRFSGSGSGTDFTLKISRVEAEDVGVYYCGQGTQVPYTFGQGTKLEIKRTVAAPSVFIFPPSDEQLKSGTASVVCLLNNFYPREAKVQWKVDNALQSGNSQESVTEQDSKDSTYSLSSTLTLSKADYEKHKVYACEVTHQGLSSPVTKSFNRGEC
notes: one-arm antibody
B5: GLS3000 N28M (Kabat) L chain altered form, one-arm antibody with CE115HA000 (antibody, human IgG1, kappa, L234A L235A, N297A, name in Kabat numbering)
heavy: QVQLVESGGGVVQPGRSLRLSCAASGFTFSNAWMHWVRQAPGKGLEWVAQIKAKSNNYATYYAESVKGRFTISRDDSKNSLYLQMNSLKTEDTAVYYCRYVHYGAYYGVDAWGQGTTVTVSSASTKGPSVFPLAPSSKSTSGGTAALGCLVKDYFPEPVTVSWNSGALTSGVHTFPAVLQSSGLYSLSSVVTVPSSSLGTQTYICNVNHKPSNTKVDKKVEPKSCDKTHTCPPCPAPEAAGGPSVFLFPPKPKDTLMISRTPEVTCVVVDVSHEDPEVKFNWYVDGVEVHNAKTKPREEQYASTYRVVSVLTVLHQDWLNGKEYKCKVSNKALPAPIEKTISKAKGQPREPQVYTLPPSRCELTKNQVSLSCAVKGFYPSDIAVEWESNGQPENNYKTTPPVLDSDGSFFLVSKLTVDKSRWQQGNVFSCSVMHEALHNHYTQKSLSLSPDYKDDDDK
chain: EPKSSDKTHTCPPCPAPELLGGPSVFLFPPKPKDTLMISRTPEVTCVVVDVSHEDPEVKFNWYVDGVEVHNAKTKPREEQYNSTYRVVSVLTVLHQDWLNGKEYKCKVSNKALPAPIEKTISKAKGQPREPQVCTLPPSRDELTKNQVSLWCLVKGFYPSDIAVEWESNGQPENNYKTTPPVLDSDGSFFLYSKLTVDKSRWQQGNVFSCSVMHEALHNRYTQKSLSLSP
light: DIVMTQSPLSLPVTPGEPASISCRSSQSLVHSMRNTYLHWYQQKPGQAPRLLIYKVSNRFSGVPDRFSGSGSGTDFTLKISRVEAEDVGVYYCGQGTQVPYTFGQGTKLEIKRTVAAPSVFIFPPSDEQLKSGTASVVCLLNNFYPREAKVQWKVDNALQSGNSQESVTEQDSKDSTYSLSSTLTLSKADYEKHKVYACEVTHQGLSSPVTKSFNRGEC
notes: one-arm antibody
B6: GLS3000 N28L (Kabat) L chain altered form, one-arm antibody with CE115HA000 (antibody, human IgG1, kappa, L234A L235A, N297A, name in Kabat numbering)
heavy: QVQLVESGGGVVQPGRSLRLSCAASGFTFSNAWMHWVRQAPGKGLEWVAQIKAKSNNYATYYAESVKGRFTISRDDSKNSLYLQMNSLKTEDTAVYYCRYVHYGAYYGVDAWGQGTTVTVSSASTKGPSVFPLAPSSKSTSGGTAALGCLVKDYFPEPVTVSWNSGALTSGVHTFPAVLQSSGLYSLSSVVTVPSSSLGTQTYICNVNHKPSNTKVDKKVEPKSCDKTHTCPPCPAPEAAGGPSVFLFPPKPKDTLMISRTPEVTCVVVDVSHEDPEVKFNWYVDGVEVHNAKTKPREEQYASTYRVVSVLTVLHQDWLNGKEYKCKVSNKALPAPIEKTISKAKGQPREPQVYTLPPSRCELTKNQVSLSCAVKGFYPSDIAVEWESNGQPENNYKTTPPVLDSDGSFFLVSKLTVDKSRWQQGNVFSCSVMHEALHNHYTQKSLSLSPDYKDDDDK
chain: EPKSSDKTHTCPPCPAPELLGGPSVFLFPPKPKDTLMISRTPEVTCVVVDVSHEDPEVKFNWYVDGVEVHNAKTKPREEQYNSTYRVVSVLTVLHQDWLNGKEYKCKVSNKALPAPIEKTISKAKGQPREPQVCTLPPSRDELTKNQVSLWCLVKGFYPSDIAVEWESNGQPENNYKTTPPVLDSDGSFFLYSKLTVDKSRWQQGNVFSCSVMHEALHNRYTQKSLSLSP
light: DIVMTQSPLSLPVTPGEPASISCRSSQSLVHSLRNTYLHWYQQKPGQAPRLLIYKVSNRFSGVPDRFSGSGSGTDFTLKISRVEAEDVGVYYCGQGTQVPYTFGQGTKLEIKRTVAAPSVFIFPPSDEQLKSGTASVVCLLNNFYPREAKVQWKVDNALQSGNSQESVTEQDSKDSTYSLSSTLTLSKADYEKHKVYACEVTHQGLSSPVTKSFNRGEC
notes: one-arm antibody

target: T1, CD3 epsilon homodimer protein (UniProt P07766 23-126); experiment: SPR Biacore T200, CD3 epsilon homodimer immobilized; vs unaltered GLS3000;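 further: antibody variants flowed as analyte over CD3 epsilon homodimer amine-coupled to a CM4 chip, at 25 °C in HBS-EP+ running buffer, fitted with Biacore T200 Evaluation Software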
T1 construct: construct not described; homodimer as printed; also called CD3 (CD3 epsilon)
T1 sequence (P07766 23-126): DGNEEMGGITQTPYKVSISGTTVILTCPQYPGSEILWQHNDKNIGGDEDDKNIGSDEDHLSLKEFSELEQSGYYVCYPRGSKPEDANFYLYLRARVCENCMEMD

Question: With B1 as the binder, how does the “KD ratio to GLS3000 (Affinity up)” value read?
Answer: 2.41

Question: For B2, which “KD ratio to GLS3000 (Affinity up)” value is on record?
Answer: 3

Question: For B3, which “KD ratio to GLS3000 (Affinity up)” value is on record?
Answer: 2.81

Question: For B4, which “KD ratio to GLS3000 (Affinity up)” value is on record?
Answer: 2.34

Question: With B5 as the binder, how does the “KD ratio to GLS3000 (Affinity up)” value read?
Answer: 3.29

Question: With B6 as the binder, how does the “KD ratio to GLS3000 (Affinity up)” value read?
Answer: 3.34

Source: US20240270846A1 (published 2024)
